Broadly, the EC50 is the concentration that produces a half-maximal response. Higher therefore signals weaker potency.

Bounds are passed on as bounds.

In test [1] the target is T1, rat PRLR ECD-Fc fusion protein (rat, UniProt P05710 20-229).
T1 construct: extracellular domain; not shown: Fc region (captured by goat anti-human Fc)
T1 sequence (looked up): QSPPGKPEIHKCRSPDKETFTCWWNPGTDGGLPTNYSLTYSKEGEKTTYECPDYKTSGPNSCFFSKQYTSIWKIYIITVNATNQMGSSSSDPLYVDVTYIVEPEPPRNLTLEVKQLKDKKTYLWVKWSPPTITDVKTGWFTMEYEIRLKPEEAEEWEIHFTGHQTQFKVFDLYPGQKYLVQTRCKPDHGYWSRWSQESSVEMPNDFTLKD
Description: ELISA on ECD. A digest of the protocol: (§1)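 PRLR was captured on blocked plates for 1 h, then incubated 1 h with serial antibody dilutions in PBS pH 7.4/0.05% Tween 20 containing 10% Superblock. HRP secondary and TMB gave signal read at 450 nm, and EC50 came from curve fitting.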
For orientation: An ELISA detects its analyte on a solid surface through an enzyme-linked reagent.

Test [2] deals with T2, mouse PRLR ECD-Fc fusion protein (mouse, UniProt Q08501 20-229).
T2 construct: extracellular domain; not shown: Fc region (captured by goat anti-human Fc)
T2 sequence (looked up): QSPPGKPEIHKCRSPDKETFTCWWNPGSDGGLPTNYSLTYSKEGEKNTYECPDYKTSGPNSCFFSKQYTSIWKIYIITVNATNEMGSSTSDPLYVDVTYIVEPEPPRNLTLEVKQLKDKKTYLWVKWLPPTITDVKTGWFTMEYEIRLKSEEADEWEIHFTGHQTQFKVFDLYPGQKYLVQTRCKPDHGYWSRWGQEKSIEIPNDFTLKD
Put plainly: ELISA on ECD. A digest of the protocol: as §1

For test [3], the target named is T3, human PRLR on cells (human, UniProt P16471 25-622).
T3 construct: Endogenous on T47D cells, transfected in Baf3-hPRLR cells; also called hPRLR; T47D cells
T3 sequence: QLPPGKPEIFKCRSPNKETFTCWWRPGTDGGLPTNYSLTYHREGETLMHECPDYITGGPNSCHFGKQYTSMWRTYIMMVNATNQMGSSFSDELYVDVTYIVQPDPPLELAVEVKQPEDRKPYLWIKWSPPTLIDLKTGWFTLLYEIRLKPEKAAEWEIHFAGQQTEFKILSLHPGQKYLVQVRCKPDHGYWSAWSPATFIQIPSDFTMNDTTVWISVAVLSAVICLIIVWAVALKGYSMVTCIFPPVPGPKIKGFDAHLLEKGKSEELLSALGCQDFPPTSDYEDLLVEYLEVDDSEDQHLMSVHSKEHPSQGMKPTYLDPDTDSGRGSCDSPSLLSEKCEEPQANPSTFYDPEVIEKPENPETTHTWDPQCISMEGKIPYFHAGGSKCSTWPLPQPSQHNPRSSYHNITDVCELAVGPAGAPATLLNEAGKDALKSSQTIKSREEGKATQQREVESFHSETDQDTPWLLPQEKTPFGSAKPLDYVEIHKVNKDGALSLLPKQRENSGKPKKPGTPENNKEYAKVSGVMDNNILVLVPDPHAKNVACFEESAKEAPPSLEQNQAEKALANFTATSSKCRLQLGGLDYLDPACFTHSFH
Put plainly: FACS T47D 10 ug/mL.

In test [4] the target is T4, rat PRLR on Nb2-11 rat lymphoma cells (rat, UniProt P05710 20-610).
T4 construct: whole, on cells
T4 sequence (looked up): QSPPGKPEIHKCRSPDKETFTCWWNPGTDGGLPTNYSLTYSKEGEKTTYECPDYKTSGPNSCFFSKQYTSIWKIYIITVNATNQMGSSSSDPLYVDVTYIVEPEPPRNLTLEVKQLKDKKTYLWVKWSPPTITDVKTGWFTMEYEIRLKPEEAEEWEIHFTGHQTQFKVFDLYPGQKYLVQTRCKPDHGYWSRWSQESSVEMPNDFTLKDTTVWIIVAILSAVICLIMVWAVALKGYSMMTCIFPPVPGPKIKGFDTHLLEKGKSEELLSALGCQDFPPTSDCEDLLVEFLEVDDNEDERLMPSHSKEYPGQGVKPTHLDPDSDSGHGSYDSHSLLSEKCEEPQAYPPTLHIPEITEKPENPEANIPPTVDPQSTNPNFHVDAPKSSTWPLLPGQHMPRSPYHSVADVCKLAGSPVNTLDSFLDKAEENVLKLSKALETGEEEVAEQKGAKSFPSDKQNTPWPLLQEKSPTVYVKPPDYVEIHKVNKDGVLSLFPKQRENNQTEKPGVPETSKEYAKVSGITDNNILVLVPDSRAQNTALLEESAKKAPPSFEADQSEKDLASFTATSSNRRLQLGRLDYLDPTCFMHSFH
Put plainly: FACS Nb2-11 20 ug/mL. How it is done: Nb2-11 and Baf3-xPRLR cells were resuspended in FACS buffer (PBS+1% FBS) at 2 millions cells/mL. Cells were added to round bottom 96-well plate (100 uL/well) and treated with testing PRLR antibodies for 1 hr at 4 C. Cells were then washed with FACS buffer twice and incubated with 2nd antibody conjugated to ALEXA488 (Invitrogen) for 1 hr at 4 C. After two washes in FACS buffer, cells were resuspended in 1% formaldehyde in PBS. Cells were analyzed using LSRII flowcytometer.

Test [5] has as its target T4, rat PRLR on Nb2-11 rat lymphoma cells. Put plainly: cell-based or functional assay.

B1: Ab11 (antibody, V domains shown)
VH: EVKLVESGGGLVQPGGSLKLSCAASGFTFSDYYMFWVRQTPEKSLEWVAYISNGGGSTYYPDTVKGRFTISRDNAKNTLYLQMSRLKSEDTAMYYCSRQLFYYGSRGAMGYWGQGTSVTVSS
VL: DVLMTQTPLSLPVSLGDQASISCRSSQSIVHSNGNTYLEWYLQKPGQSPKLLIYKVSNRFSGVPDRFSGSGSGTDFTLKISRVEAEDLGVYYCFQGSHVPFTFGSGTKLEIK
notes: murine monoclonal, isotype G1; also called murine Ab11
Regarding B1, the EC50 in test [1] worked out at 0.087 nM; in test [2] it was 0.086 nM. Moreover, the “FACS GeoMean-neg” value stood at 2220 in test [3] and 94 in test [4]. For the same molecule, the “Nb2-11 proliferation IC50” value in test [5] was more than 30 µg/mL.

For the origin of these results see patent US20170022281A1 (AbbVie / Abbott, published 2017).
